Assays:
[1] = estimated; cited from earlier work
[2] = molecular target: T1, complement factor D (CFD) (Homo sapiens, UniProt P00746); settings: patients, monthly intravitreal 10 mg in one eye for 18 months, injected eye, compared to placebo; cited from earlier work
T1 construct: host or cells: Endogenous CFD in the eyes of AMD patients

[3] = test system: neutral lipids in and on the Bruch's membrane; assay: Oil red O staining of neutral lipids in and on the Bruch's membrane, geriatric macaques with age-related maculopathy; assay type: in vivo, Macaca fascicularis; settings: injected eyes after 6 monthly intravitreal injections (total 625 μg), compared to eyes injected with placebo
Description: (§1) The macaque study was conducted according to accepted guidelines. […] One eye per animal received 6 monthly injections of the same escalating dosages of L-4F or scrambled L-4F (total of 625 μg) in a 50 μL volume. The second eye per animal was not injected and was just observed.
Clinical laboratory tests including serology, hemograms and liver enzymes were conducted, and ophthalmic examinations were also performed, including fundus photographs, optical coherence tomography (OCT), intraocular pressure testing and blood sampling. After 7 months, all animals were sacrificed and eyes were immediately prepared for histology. Histochemistry was performed with oil red O for neutral lipids and filipin for esterified cholesterol. […]
For staining with oil red O (ORO), specimens were treated with a 0.3% oil red O (Sigma-Aldrich Biochemie GmbH, Hamburg, Germany) solution (in 99% isopropanol) for 30 min at room temperature (RT), followed by immersion in a 60% isopropanol solution for 12 min. […] Image analysis was performed by grading the intensity of ORO staining (red color) of the Bruch's membrane (BrM) with scores ranging from 0 to 4, according to a qualitative evaluation assessed in four different regions in two separate slices from each eye (a total of 8 different regions from each eye). […]

[4] = Tolerability of intravitreal injections, macaque study; assay type: in vivo, Macaca fascicularis; settings: 6 monthly intravitreal injections, all macaques; no significant adverse event or side effect
Description: as §1
Clinical laboratory tests including serology, hemograms and liver enzymes were conducted, and ophthalmic examinations were also performed, including fundus photographs, optical coherence tomography (OCT), intraocular pressure testing and blood sampling. After 7 months, all animals were sacrificed and eyes were immediately prepared for histology. Histochemistry was performed with oil red O for neutral lipids and filipin for esterified cholesterol. Immunohistochemistry was performed against complement factor D (CFD) and the membrane attack complex (MAC, C5b-9), both being markers of activation of the alternative complement pathway.
Circulating hsCRP, which is mainly produced in the liver, is a non-specific marker for systemic inflammation.

[5] = without encapsulated cell technology; cited from earlier work

T1 sequence (P00746 26-253): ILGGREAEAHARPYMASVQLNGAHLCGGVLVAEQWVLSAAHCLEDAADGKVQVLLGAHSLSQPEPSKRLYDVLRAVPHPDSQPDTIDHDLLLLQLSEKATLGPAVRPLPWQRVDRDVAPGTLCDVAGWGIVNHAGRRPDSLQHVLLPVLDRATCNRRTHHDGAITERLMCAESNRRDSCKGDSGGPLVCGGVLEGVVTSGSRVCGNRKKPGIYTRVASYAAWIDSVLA

For “aflibercept: soluble fusion protein containing extracellular domains of VEGFRs; anti-VEGF agent”, the intravitreal half-life [1] is listed as “about 9.0 days”.

In the case of bevacizumab: anti-VEGF antibody, the intravitreal half-life [1] is given as “about 9.8 days”.

In the case of “ranibizumab: anti-VEGF antibody fragment”, the intravitreal half-life [1] is listed as “about 7.1 days”.

For “lampalizumab: antigen-binding fragment (Fab) of a humanized monoclonal antibody targeting complement factor D (CFD)”, the “reduction in the rate of GA enlargement, and hence the area of GA” value [2] is listed as “about 20%”.

With “Ac-DWFKAFYDKVAEKFKEAF-NH2 [L-4F, Ac-DWFKAFYDKVAEKFKEAF-NH2 acetate salt]” the “reduction of lipid deposits from the BrM (oil red O staining)” value [3] was “about 56%” and the tolerability [4] was “well tolerated”.

B1: CNTF: ciliary neurotrophic factor, an endogenous neuroprotector (protein, UniProt P26441 1-200, looked up)
Ciliary neurotrophic factor: MAFTEHSPLTPHRRDLCSRSIWLARKIRSDLTALTESYVKHQGLNKNINLDSADGMPVASTDQWSELTEAERLQENLQAYRTFHVLLARLLEDQQVHFTPTEGDFHQAIHTLLLQVAAFAYQIEELMILLEYKIPRNEADGMPINVGDGGLFEKKLWGLKVLQELSQWTVRSIHDLRFISSHQTGIPARGSHYIANNKKM
For B1, the “half-life of CNTF” value [5] is given as 1 to 3 min.

From patent publication US20180296525A1, “TREATMENT OF AGE-RELATED MACULAR DEGENERATION AND OTHER EYE DISEASES WITH ONE OR MORE THERAPEUTIC AGENTS” (MacRegen, Inc., priority 2017, published 2018)
